The target in this test is T1, His-Flag-DBR1 (human, UniProt Q9UK59 1-544).
T1 sequence (looked up): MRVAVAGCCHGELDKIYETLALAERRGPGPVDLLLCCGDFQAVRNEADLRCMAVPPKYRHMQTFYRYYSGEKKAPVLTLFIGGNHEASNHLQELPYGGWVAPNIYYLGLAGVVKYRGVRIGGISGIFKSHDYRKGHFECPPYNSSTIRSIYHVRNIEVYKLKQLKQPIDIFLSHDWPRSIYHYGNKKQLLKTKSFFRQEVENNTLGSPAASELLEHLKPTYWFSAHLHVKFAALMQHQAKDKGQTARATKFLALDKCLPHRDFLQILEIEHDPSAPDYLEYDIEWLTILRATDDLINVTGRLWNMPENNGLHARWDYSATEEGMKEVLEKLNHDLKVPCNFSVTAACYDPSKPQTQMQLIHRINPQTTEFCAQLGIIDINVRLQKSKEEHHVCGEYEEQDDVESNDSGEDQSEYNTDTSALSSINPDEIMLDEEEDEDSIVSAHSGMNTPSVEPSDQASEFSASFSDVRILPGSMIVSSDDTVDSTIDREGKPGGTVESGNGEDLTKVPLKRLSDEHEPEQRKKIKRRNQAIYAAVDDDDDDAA
Put plainly: pull-down.

B1: GST-TTDN1 (natural protein, human, UniProt Q8TAP9 1-179, looked up)
chain: MQRQNFRPPTPPYPGPGGGGWGSGSSFRGTPGGGGPRPPSPRDGYGSPHHTPPYGPRSRPYGSSHSPRHGGSFPGGRFGSPSPGGYPGSYSRSPAGSQQQFGYSPGQQQTHPQGSPRTSTPFGSGRVREKRMSNELENYFKPSMLEDPWAGLEPVSVVDISQQYSNTQTFTGKKGRYFC
For B1, the binding result is reported as “binds”.

These data come from PMC10483886 (Molecular cell, 2023).
